The supplement of paper PMC10126150
± gives the standard deviation of the averaged measurements.

System: ATP
Test: switch fluorescence ratio, 500 uM ATP over buffer (Cy3 cluster intensity, sum of 5 cycles each) (fold (ratio)); higher = stronger signal-on switching upon ATP binding; sequences stand for … in TCGTCGGCAGCGTCAGATGTGTATAAGAGACAGTTTTTTTTTTTTTTTTTTTTTTTTT…TC
Conditions: aptamer strand: ATP DNA aptamer (quencher-CACCTGGGGGAGTATTGCGGAGGAAGG + anchor), 100 nM annealed; ATP concentration: 500 uM
How it was run: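 Switching-strand clusters labelled with Cy3 on a modified Illumina MiSeq flow-cell were annealed to 100 nM quencher-labelled ATP aptamer, imaged in selection buffer, and re-imaged after 15 min with 500 uM ATP at 22 °C. This was done over five cycles with NaOH stripping and re-annealing in between. The fluorescence ratio is summed target-cycle over summed buffer-cycle Cy3 intensity per cluster, averaged per switch-domain sequence, excluding clusters outside 100-1000 RFU.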
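Note: ATP exposure 15 min at 22 °C before imaging.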

| Sequence | switch fluorescence ratio |
| --- | --- |
| GGGAGAGGCG | 0.984 ± 0.013 |
| GGGAGAGTTG | 0.993 ± 0.023 |
| GGGAGATTGT | 0.999 ± 0.026 |
| GGGAGCATTG | 1.02 ± 0.037 |
| GGGAGCGCGG | 0.994 ± 0.013 |
| GGGAGCTCTG | 1 ± 0.014 |
| GGGAGGAAAA | 1.02 ± 0.016 |
| GGGAGGAAAG | 0.991 ± 0.017 |
| GGGAGGAGTG | 0.98 ± 0.029 |
| GGGAGGATGT | 0.997 ± 0.022 |
| GGGAGGGACT | 1.03 ± 0.051 |
| GGGAGGGGCC | 1.01 ± 0.026 |
| GGGAGGGGCG | 1 ± 0.023 |
| GGGAGGGGCT | 1.02 ± 0.068 |
| GGGAGGGGGG | 0.994 ± 0.032 |
| GGGAGGGTCT | 0.975 ± 0.016 |
| GGGAGGTAAT | 1 ± 0.056 |
| GGGAGGTATA | 0.969 ± 0.012 |
| GGGAGGTCAT | 0.9731 ± 0.0065 |
| GGGAGGTGTT | 1.037 ± 0.009 |
| GGGAGTAGAC | 1.02 ± 0.045 |
| GGGAGTAGTT | 1.01 ± 0.025 |
| GGGAGTATTT | 1 ± 0.034 |
| GGGAGTCCCA | 0.9973 ± 0.0078 |
| GGGAGTGGCC | 1.01 ± 0.032 |

| Sequence | switch fluorescence ratio |
| --- | --- |
| GGGAGTTCGG | 0.9597 ± 0.0092 |
| GGGAGTTGGA | 1.02 ± 0.024 |
| GGGATAGAAG | 0.971 ± 0.019 |
| GGGATATTAG | 0.994 ± 0.034 |
| GGGATATTTT | 0.977 ± 0.018 |
| GGGATCATGT | 0.98 ± 0.014 |
| GGGATCCAGG | 1.23 ± 0.087 |
| GGGATGAGTT | 0.98 ± 0.041 |
| GGGATGCTCT | 1.01 ± 0.017 |
| GGGATGGGAA | 1.02 ± 0.022 |
| GGGATGGGGT | 0.988 ± 0.029 |
| GGGATGGGTC | 0.985 ± 0.02 |
| GGGATGTGCT | 0.957 ± 0.012 |
| GGGATGTGTT | 0.9635 ± 0.0069 |
| GGGATTAGTC | 1.05 ± 0.088 |
| GGGATTCGTC | 0.994 ± 0.02 |
| GGGATTGGCA | 0.9798 ± 0.0092 |
| GGGATTGTTT | 0.965 ± 0.021 |
| GGGATTTGGG | 0.9745 ± 0.0088 |
| GGGATTTGTG | 0.972 ± 0.01 |
| GGGCAACGAC | 1.07 ± 0.0093 |
| GGGCAACTTT | 0.997 ± 0.049 |
| GGGCAAGAAT | 0.997 ± 0.017 |
| GGGCAAGGGG | 1.02 ± 0.028 |
| GGGCAAGTGG | 0.959 ± 0.014 |

| Sequence | switch fluorescence ratio |
| --- | --- |
| GGGCAATTAG | 1.15 ± 0.014 |
| GGGCAATTGC | 1.01 ± 0.059 |
| GGGCACGTTT | 0.995 ± 0.011 |
| GGGCAGATAT | 1.02 ± 0.017 |
| GGGCAGGGGG | 1.01 ± 0.04 |
| GGGCATAAAG | 1.02 ± 0.025 |
| GGGCATAGGT | 0.982 ± 0.018 |
| GGGCATGGCT | 0.99 ± 0.016 |
| GGGCCATAAG | 0.988 ± 0.052 |
| GGGCCATATT | 0.963 ± 0.044 |
| GGGCCATGGT | 0.9815 ± 0.0072 |
| GGGCCCATTG | 0.963 ± 0.04 |
| GGGCCCGCTG | 0.987 ± 0.049 |
| GGGCCCGGGA | 0.986 ± 0.018 |
| GGGCCCGTAT | 1.014 ± 0.0091 |
| GGGCCCTGGT | 1.01 ± 0.013 |
| GGGCCGGCTG | 1.01 ± 0.036 |
| GGGCCTCGGG | 0.953 ± 0.04 |
| GGGCCTGATG | 1.01 ± 0.012 |
| GGGCGAAGGG | 0.987 ± 0.032 |
| GGGCGGACGT | 0.969 ± 0.041 |
| GGGCGGGAAC | 1.014 ± 0.0088 |
| GGGCGGGGTG | 1.03 ± 0.025 |
| GGGCGTCGTC | 0.993 ± 0.052 |
| GGGCTAGAGG | 0.974 ± 0.022 |

| Sequence | switch fluorescence ratio |
| --- | --- |
| GGGCTAGATG | 1 ± 0.018 |
| GGGCTAGTTA | 0.9948 ± 0.0073 |
| GGGCTATAGA | 0.9984 ± 0.0095 |
| GGGCTATAGC | 0.997 ± 0.056 |
| GGGCTATGCT | 1 ± 0.037 |
| GGGCTCATCA | 0.998 ± 0.041 |
| GGGCTGGTTC | 1.03 ± 0.017 |
| GGGCTGTAAG | 0.997 ± 0.04 |
| GGGCTGTGTG | 1.02 ± 0.035 |
| GGGCTTAGAG | 1.012 ± 0.007 |
| GGGCTTGCAA | 1.04 ± 0.016 |
| GGGCTTTCTC | 1.09 ± 0.055 |
| GGGCTTTTGG | 0.9868 ± 0.0012 |
| GGGCTTTTTT | 0.98 ± 0.018 |
| GGGGAAAAAT | 1.01 ± 0.032 |
| GGGGAAAACA | 1 ± 0.014 |
| GGGGAAAGGC | 1.02 ± 0.018 |
| GGGGAAAGTA | 1.03 ± 0.03 |
| GGGGAAATAT | 0.981 ± 0.024 |
| GGGGAACTGG | 1.01 ± 0.023 |
| GGGGAAGAAT | 0.9784 ± 0.0021 |
| GGGGAAGAGA | 0.96964 ± 5.5e-05 |
| GGGGAAGAGT | 0.996 ± 0.052 |
| GGGGAAGATA | 0.9862 ± 0.0025 |
| GGGGAAGGTG | 1.79 ± 1 |

| Sequence | switch fluorescence ratio |
| --- | --- |
| GGGGAAGTAG | 0.994 ± 0.018 |
| GGGGAATCGC | 0.97 ± 0.055 |
| GGGGAATGAA | 1.019 ± 0.009 |
| GGGGAATGGG | 1.01 ± 0.028 |
| GGGGAATGGT | 1.01 ± 0.074 |
| GGGGAATGTG | 0.963 ± 0.013 |
| GGGGAATTAG | 0.973 ± 0.008 |
| GGGGACAGTT | 1.02 ± 0.017 |
| GGGGACCGGT | 1.054 ± 0.0023 |
| GGGGACGGGA | 0.989 ± 0.024 |
| GGGGACGGTA | 1.03 ± 0.027 |
| GGGGACGTCA | 0.998 ± 0.012 |
| GGGGACGTGG | 0.965 ± 0.011 |
| GGGGAGAAGG | 0.981 ± 0.031 |
| GGGGAGCGGC | 1.02 ± 0.0027 |
| GGGGAGGAAT | 0.971 ± 0.024 |
| GGGGAGGACT | 1 ± 0.021 |
| GGGGAGGAGG | 0.986 ± 0.0087 |
| GGGGAGGAGT | 1.01 ± 0.026 |
| GGGGAGGATT | 0.986 ± 0.027 |
| GGGGAGGGTA | 1.03 ± 0.015 |
| GGGGAGTAGC | 0.999 ± 0.03 |
| GGGGAGTCGG | 1.01 ± 0.047 |
| GGGGAGTTCG | 0.983 ± 0.019 |
| GGGGATAAGG | 0.984 ± 0.042 |

| Sequence | switch fluorescence ratio |
| --- | --- |
| GGGGATACGG | 1.026 ± 0.0047 |
| GGGGATAGAT | 0.982 ± 0.027 |
| GGGGATAGT | 1 ± 0.015 |
| GGGGATGCGG | 1.02 ± 0.021 |
| GGGGATGCTC | 1.03 ± 0.018 |
| GGGGATGGGT | 0.999 ± 0.045 |
| GGGGATGTGA | 0.967 ± 0.037 |
| GGGGATGTTG | 0.996 ± 0.013 |
| GGGGATTATT | 0.991 ± 0.036 |
| GGGGATTCT | 0.9936 ± 0.0094 |
| GGGGCACGGC | 1.01 ± 0.03 |
| GGGGCAGCTG | 1.06 ± 0.08 |
| GGGGCAGGAC | 1.54 ± 0.7 |
| GGGGCAGTTA | 1 ± 0.025 |
| GGGGCATCTT | 1.01 ± 0.046 |
| GGGGCCAAGG | 0.981 ± 0.017 |
| GGGGCCACGC | 1.01 ± 0.034 |
| GGGGCCCGAA | 0.981 ± 0.035 |
| GGGGCCGAGG | 0.9573 ± 0.0075 |
| GGGGCCGATA | 1.04 ± 0.079 |
| GGGGCCTCGG | 0.997 ± 0.019 |
| GGGGCGCGCC | 1.022 ± 0.0077 |
| GGGGCGGAGT | 0.989 ± 0.055 |
| GGGGCGGCGG | 0.962 ± 0.066 |
| GGGGCGGGAA | 0.982 ± 0.05 |

| Sequence | switch fluorescence ratio |
| --- | --- |
| GGGGCGGGAG | 1.03 ± 0.042 |
| GGGGCGTATG | 0.993 ± 0.02 |
| GGGGCGTGAG | 0.998 ± 0.034 |
| GGGGCTCATA | 0.9876 ± 0.0072 |
| GGGGCTGCGC | 1.05 ± 0.1 |
| GGGGCTGGGA | 0.986 ± 0.027 |
| GGGGCTGGTA | 1.003 ± 0.0043 |
| GGGGCTGGTT | 0.99 ± 0.024 |
| GGGGCTTCTG | 1.03 ± 0.019 |
| GGGGCTTGGA | 1 ± 0.017 |
| GGGGCTTGTA | 1 ± 0.016 |
| GGGGCTTTAT | 0.992 ± 0.013 |
| GGGGCTTTCG | 1 ± 0.072 |
| GGGGGAAAG | 1 ± 0.025 |
| GGGGGAACAG | 0.991 ± 0.011 |
| GGGGGACCCA | 0.982 ± 0.06 |
| GGGGGACTAA | 0.996 ± 0.042 |
| GGGGGAGACT | 1 ± 0.051 |
| GGGGGAGAG | 0.979 ± 0.034 |
| GGGGGAGGTT | 0.977 ± 0.029 |
| GGGGGATAGC | 0.991 ± 0.023 |
| GGGGGATAGG | 1 ± 0.025 |
| GGGGGATCAG | 0.992 ± 0.045 |
| GGGGGATGCC | 1.15 ± 0.22 |
| GGGGGATGGC | 0.975 ± 0.064 |

| Sequence | switch fluorescence ratio |
| --- | --- |
| GGGGGATGGT | 0.978 ± 0.035 |
| GGGGGATTAC | 1.06 ± 0.083 |
| GGGGGATTGA | 1.0228 ± 0.00054 |
| GGGGGATTGT | 1.02 ± 0.043 |
| GGGGGATTTA | 0.992 ± 0.022 |
| GGGGGCAAGC | 1.25 ± 0.35 |
| GGGGGCAATG | 1.13 ± 0.064 |
| GGGGGCACGA | 1.07 ± 0.021 |
| GGGGGCAGCC | 1.05 ± 0.083 |
| GGGGGCAGGA | 0.987 ± 0.017 |
| GGGGGCATAT | 1.02 ± 0.026 |
| GGGGGCATGA | 0.966 ± 0.015 |
| GGGGGCCGTC | 1.01 ± 0.09 |
| GGGGGCCTTT | 0.995 ± 0.02 |
| GGGGGCGAAT | 1.01 ± 0.011 |
| GGGGGCGCAA | 1.129 ± 0.011 |
| GGGGGCGGGG | 1.01 ± 0.03 |
| GGGGGCGGTC | 0.997 ± 0.023 |
| GGGGGCGTCA | 1.02 ± 0.017 |
| GGGGGCTAGT | 0.991 ± 0.056 |
| GGGGGCTGAA | 0.985 ± 0.027 |
| GGGGGCTTAC | 1.01 ± 0.021 |
| GGGGGGAAAA | 0.986 ± 0.025 |
| GGGGGGAACA | 1.01 ± 0.029 |
| GGGGGGAAGG | 1.01 ± 0.03 |
